Results taken from US20030092885A1, “Solubility and stability enhancement tag for structural and ligand binding studies of proteins” (President and Fellows of Harvard College, priority 2001, published 2003).

Tests used:
[1] = Solubility of target protein or complex with and without the small solubility and stability enhancing tag; type: physicochemical
[2] = Solution stability (time until the sample precipitates) with and without the tag; type: physicochemical; settings: FAIM, 25° C.

Molecule	solubility ([1]; FIG. 4 legend)	can be concentrated up to ([1]; FAIM)	time until precipitation from solution / stable in solution [2]
DFF45 NTD: N-terminal domain of human DNA fragmentation factor 45, unfolded when free (protein, UniProt O00273 1-116, looked up, fragment) MEVTGDAGVPESGEIRTLKPCLLRRNYSREQHGVAASCLEDLRSKACDILAIDKSLTPVTLVLAEDGTIVDDDDYFLCLPSNTKFVALASNEKWAYNNSDGGTAWISQESFDVDET	200 µM	–	–
FAIM protein: 20 kDa apoptosis inhibitor in b cells, untagged (protein, UniProt Q9NVQ4 2-179, looked up) Fas apoptotic inhibitory …: TDLVAVWDVALSDGVHKIEFEHGTTSGKRVVYVDGKEEIRKEWMFKLVGKETFYVGAAKTKATINIDAISGFAYEYTLEINGKSLKKYMEDRSKTTNTWVLHMDGENFRIVLEKDAMDVWCNGKKLETAGEFVDDGTETHFSIGNHDCYIKAVSSGKRKEGIIHTLIVDNREIPEIAS	–	up to 1 mM	one week
